Laboratory results published in US20210380664A1.

What was measured:
[1] = biological target: HCMV virus particles, strain TB40/E; experiment: cell-based or functional assay
[2] = biological target: HCMV virus particles, strain TB40/E; experiment: immunofluorescence: intensity of anti-human Fc staining per virus particle on HFFs at different PDGFR-alpha-Fc concentrations

Substance: soluble PDGFR-alpha-Fc chimera (R&D 6765-PR-050) (Fc fusion)
- EC50 of inhibition of infection of HECs (IE antigen staining) [1]: 0.02 to 0.05 µg/mL
- EC50 of inhibition of infection of HFFs (IE antigen staining) [1]: 0.01 to 0.02 µg/mL
- complete abrogation of infection of HFFs [1]: 200 ng/mL
- infectivity of already adsorbed virus on HFFs (200 ng/ml, post adsorption) [1]: 50%
- reduction of adsorption of pre-treated virus particles to HECs (100 ng/ml) [1]: 75%
- reduction of adsorption of pre-treated virus particles to HFFs (100 ng/ml) [1]: 50%
- reduction of penetration of pre-treated virus particles into HFFs (100 ng/ml) [1]: 75%
- EC50 [2]: 0.108 µg/mL
